The target of assay [1] is VpreB1 protein (Homo sapiens (Human)) (UniProt P12018). Kind of assay: flow cytometry, 1 ug FITC-conjugated antibody on 1x10^6 HT cells (no detectable VpreB1 mRNA in Table 1; in effect a VpreB1-negative line).
For assay [2] the target is unchanged. Kind of assay: flow cytometry, 1 ug FITC-conjugated antibody on 1x10^6 GA-10 cells (endogenous VpreB1). For orientation: Flow cytometry measures light scatter and fluorescence of single cells or particles in a stream.
The target is the same in assay [3]. The assay can be described thus: flow cytometry, 1 ug FITC-conjugated antibody on 1x10^6 CA46 cells (endogenous VpreB1).

Sequence of UniProt P12018 (P12018 20-145 limits assumed): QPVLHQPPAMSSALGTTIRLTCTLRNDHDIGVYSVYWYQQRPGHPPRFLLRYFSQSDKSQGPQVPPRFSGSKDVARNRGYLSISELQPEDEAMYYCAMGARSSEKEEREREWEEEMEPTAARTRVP

With “FITC-conjugated anti-VpreB1 monoclonal antibody (Serotec, Raleigh, N.C.)”, the figures for the % of cells surface labeled (gate M1) in assay [1], in assay [2] and in assay [3] were 3%, 91% and 69%, respectively.

These data come from patent US20030215453A1.
